Data set [1] deals with the molecule itself. Nature of the data set: crystal structure; My11–My13 at 10 mg/ml; 0.1 M MES pH 6, 0.22 M lithium sulfate, 13% PEG 8000; 3.5 Å; molecular replacement with the (My13)2 dimer module of 2R15.
Data set [2] concerns the molecule itself. The experiment in a line: small angle X-ray scattering (SAXS); 4–15 mg/ml, 25 mM Tris/HCl pH 7.5, 150 mM NaCl, 290 K; extrapolated to infinite dilution; mass by comparison with bovine serum albumin.

Results on 2 proteins are retold here after paper PMC3279516, “Superhelical Architecture of the Myosin Filament-Linking Protein Myomesin with Unusual Elastic Properties” (PLoS Biology, 2012).

B1: myomesin My11–My13 (residues 1352–1666) (domain or fragment, human, UniProt P52179 1352-1666, looked up)
chain: WIRKQGPHFVEYLSWEVTGECNVLLKCKVANIKKETHIVWYKDEREISVDEKHDFKDGICTLLITEFSKKDAGIYEVILKDDRGKDKSRLKLVDEAFKELMMEVCKKIALSATDLKIQSTAEGIQLYSFVTYYVEDLKVNWSHNGSAIRYSDRVKTGVTGEQIWLQINEPTPNDKGKYVMELFDGKTGHQKTVDLSGQAYDEAYAEFQRLKQAAIAEKNRARVLGGLPDVVTIQEGKALNLTCNVWGDPPPEVSWLKNEKALASDDHCNLKFEAGRTAYFTINGVSTADSGKYGLVVKNKYGSETSDFTVSVFIP
notes: myomesin (MYOM1), human, Ig domains My11–My13, residues 1352–1666 of MYOM1_HUMAN; Vector pET151/D-TOPO with N-terminal His6 and TEV site; also called My11–My13 triplet; source: E. coli BL21 (DE3) CodonPlus-RP, purified (Ni-NTA, size exclusion chromatography)
As for B1, the binding result in data set [1] was “binds”.

B2: myomesin My9–My13 (residues 1141–1666) (domain or fragment, human, UniProt P52179 1141-1666, looked up)
chain: TKEVVVNVDDDGVISLNFECDKMTPKSEFSWSKDYVSTEDSPRLEVESKGNKTKMTFKDLGMDDLGIYSCDVTDTDGIASSYLIDEEELKRLLALSHEHKFPTVPVKSELAVEILEKGQVRFWMQAEKLSGNAKVNYIFNEKEIFEGPKYKMHIDRNTGIIEMFMEKLQDEDEGTYTFQLQDGKATNHSTVVLVGDVFKKLQKEAEFQRQEWIRKQGPHFVEYLSWEVTGECNVLLKCKVANIKKETHIVWYKDEREISVDEKHDFKDGICTLLITEFSKKDAGIYEVILKDDRGKDKSRLKLVDEAFKELMMEVCKKIALSATDLKIQSTAEGIQLYSFVTYYVEDLKVNWSHNGSAIRYSDRVKTGVTGEQIWLQINEPTPNDKGKYVMELFDGKTGHQKTVDLSGQAYDEAYAEFQRLKQAAIAEKNRARVLGGLPDVVTIQEGKALNLTCNVWGDPPPEVSWLKNEKALASDDHCNLKFEAGRTAYFTINGVSTADSGKYGLVVKNKYGSETSDFTVSVFIP
notes: myomesin (MYOM1), human, Ig domains My9–My13, residues 1141–1666 of MYOM1_HUMAN; Vector pET151/D-TOPO with N-terminal His6 and TEV site; also called C-terminal myomesin filament; My9–My10–My11–My12–(My13)2–My12′–My11′–My10′–My9′; source: E. coli BL21 (DE3) CodonPlus-RP, purified (Ni-NTA, size exclusion chromatography)
As for B2, in data set [2], the “stoichiometry N” value is 2.

What is called stoichiometry N is a count of units in the complex or per binding partner.
